Reference: article PMC4778861, “Type One Protein Phosphatase 1 and Its Regulatory Protein Inhibitor 2 Negatively Regulate ABA Signaling” (PLoS Genetics, 2016)
One block for each binder: values may come before it.

Biological target: T1, MBP-SnRK2.6 (Arabidopsis thaliana, UniProt Q940H6 1-362)
T1 construct: SNF1-related protein kinase 2.6 (SnRK2.6, OST1), Arabidopsis thaliana, in pMal-c2X; source: E. coli BL21 (DE3), purified (amylose resin); not shown: MBP, N-terminal, kept
T1 sequence (looked up): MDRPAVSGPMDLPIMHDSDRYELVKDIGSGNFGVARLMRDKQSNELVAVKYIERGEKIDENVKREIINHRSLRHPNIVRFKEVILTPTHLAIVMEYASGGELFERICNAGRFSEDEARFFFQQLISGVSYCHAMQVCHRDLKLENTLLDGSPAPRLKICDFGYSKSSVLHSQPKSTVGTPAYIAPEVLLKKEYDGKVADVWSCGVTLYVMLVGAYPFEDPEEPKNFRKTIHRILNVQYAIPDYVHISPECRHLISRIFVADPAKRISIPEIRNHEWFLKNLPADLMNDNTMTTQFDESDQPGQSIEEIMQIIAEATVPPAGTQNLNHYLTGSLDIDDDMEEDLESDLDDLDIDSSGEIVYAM
Assay: pull-down; GST-TOPP1 or GST-AtI-2 incubated with MBP-SnRK2.6 in amylose resin, 4 hours at 4°C, washed 4 times with 1X PBS; SDS-PAGE, coomassie blue
Details: both partners purified

binding result: binds
B1: GST-AtI-2 (natural protein, Arabidopsis thaliana, UniProt Q9LTK0 1-191, looked up)
chain: MTEPKRGRVQWDEANIVEIESNKPVRQKITEPKTPYHPMMDDDGSLSPRGRAFDECVDDMQRAEELRNVLNDAAASSSRNSSQGSGGGGWSSSDEEEEEADPMDQDEEGSGSGKNERFNAHRKAHYDEFRKVKELRSSGSFYEEEEEEDDGAKGSKSETTTNSRHTKGGNKELDATKTVSGTSSSSSPELI
notes: source: E. coli, purified (glutathione-agarose beads); not shown: GST, N-terminal, kept

binding result: binds
B2: GST-TOPP1 (enzyme, Arabidopsis thaliana, UniProt P30366 1-318, looked up)
chain: MAEKPAQEQEQKRAMEPAVLDDIIRRLVEFRNTRPGSGKQVHLSEGEIRQLCAVSKEIFLQQPNLLELEAPIKICGDIHGQYSDLLRLFEYGGFPPEANYLFLGDYVDRGKQSLETICLLLAYKIKYPENFFLLRGNHESASINRIYGFYDECKRRFNVRLWKIFTDCFNCLPVAALIDDRILCMHGGISPELKSLDQIRNIARPMDIPESGLVCDLLWSDPSGDVGWGMNDRGVSYTFGADKVAEFLEKHDMDLICRAHQVVEDGYEFFAERQLVTVFSAPNYCGEFDNAGAMMSIDESLMCSFQILKPSEKKSPFL
notes: also called GST-tagged TOPP1; source: E. coli, purified (glutathione-agarose beads); not shown: GST, N-terminal, kept
